Laboratory results taken from the nanobody polyreactivity screen of Harvey et al. (2022).

Assay: yeast display, Sf9 membrane polyspecificity reagent, FACS + sequencing; frameworks hold sequencing errors
Procedure, shortened: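 Nanobodies from a synthetic yeast display library (Saccharomyces cerevisiae BJ5465), induced 36–48 hours with galactose, were stained 1 hour at 4 °C with 10% biotinylated, detergent-solubilized Sf9 membrane reagent, enriched on streptavidin microbeads, then FACS-sorted. Anti-HA (expression) and streptavidin (reagent binding) fluorescence set low and high (top ~1%) gates. Polyreactivity labels come from the gate of origin. Genes were colony-PCR amplified, MiSeq 2 × 250 sequenced and filtered by CDR length.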

Sequence	polyreactivity (PSR sort gate)
QVQLVESGGGLVQAGGSLRLSCAASGSIFPSYAMGWYRQAPGKERELVAAISRSAGSTYYADSVKGRFTISRDNAKNTVYLQMNSLKPEVTAVYYCAADVYSSRYRYDYWGQGTQVTVSS	low polyreactivity
QVQLVESGGGLVHAGGSLRLSCAASGSTYGGNAMGWYRQAPGKETELVASITRSGGSTYYADSVKGRFTISRDNAKNTVYLQMNSLKPEDTSVYYCAAGKWYRSPWKYDYWGQGTQVTVSS	low polyreactivity
QVHHVESAGGLVQAGASLRLSSAASGSTIYRYAMGWYRQTPGKERELVARIDWSDGSTNYADSVKGRFTISRDNAKNTVYLQMNSLKPEDTGVYYCASDTYYDTYDGEYEYWGQGTQVTVSS	low polyreactivity
QVHHVESGGVLVKAGGSLRLSCAASGRTIYAYAMGWYRQAPGQESELVAAITSGASTYYADSVKGRFTISRDNAKNTVYLQMNSLKPEDTGVYYCAKRVRYYKPGYDYWGLGTQVTVSS	low polyreactivity
KVQLVESGGGLVQAGGSLRLSCAASGFIFGAYAMGWYRQAPGKERELVPSITWRGGSTYYADSVKGRFTISRDNAKNTVYLQMNSLKPEDTAVYYCAARVYLYNWQYFAYRAVDYWGQGTQVTVSS	high polyreactivity
QVQLVESGGGLVQAGGSLRLSCAASGNTFYYAKAWYRQAPGKERELVASIRTGGSTNYADSVKGRFTISRDNAKNTVYLQMNSLKPEDTAVYYCNRDGTYTHTGWDYWRPYEYWGQGTQVTVSS	low polyreactivity
QVQLVESGGGLVQAGGSLRLSCAASGSISKINAMGWYRQAPGKERELVAAINTGDSTYYADSVKGRFTISRDNAKNTVYLQMNSLKPEDTAVYYCAAEGSPNGYDYWGQGTQVTVSS	low polyreactivity
QVQLVESGGGLVQAGGSLRLSCAASGRTFYTYAMGWYRQAPGKEREFVAAITGSGGSTYYADSVKGRFTISRDNAKNTVYLQLNSLKPEDTAVYYCNARSPGDVWYYYWGQGTQVTVSS	low polyreactivity
QVQLVESGGGLVQAGGSLRLSCAASGSTLQDNAMGWYRQAPGKDRELVAAITTGSTTYADSVKGRFTISRDNAKNTVYIQMNSLKPEDTAVYYCAADSEEYDGYTWWVFKFDYWGQGTQVTVSS	low polyreactivity
QVQLVESGGGLVQAGGSLRLSCAASGITFRRNAMGWYRQAPGTERELVAGISGRGGSTYYADSVKGRFTISRDNAKNTVYLQMNSLKPEDTAVYYCAAVRFRTPTLEYWTRYDYWGQGTQVTVSS	high polyreactivity
QVQLVESGGGLVQAGGSLRLSCAVSGRIFRRNVMGWYRQAPGKERELVAGISYSGDSTYYADSVKGRFTISRDNAKKTVYFQMNSLKPEDTAVYYCAAAVAHYRGMYYWGQGTQVTVSS	low polyreactivity
QDQLVESGGGLVQAGVSLRLSCAASGLTFPQYVMGWYRQAPGKQRELDASISSSGGNTYYADSVKGRFTISRDNAKNTVYLQMISLKPEDTAVYYCAAEYIFHYYDIFDYWGQGTQVTVSS	high polyreactivity
QVQLVETGGGLVQAGGSLRLSCAASGSIFASYAMGWYRQAPGKERELVAAITTSGGRTYYADSVKGRFTISRDNAKNTVYLQMNSLKPEDTAVYYCAVRYRGYGYDWGQGTQVTVSS	high polyreactivity
QVQLVESGGGLVQDGGSLPLSCAASGHIFIYYTMGWYRQAPGKERELVAGITIGGSTNYADSVKGRFTISRDNAQNTVYLQMNSLKPEDTAVYYCSTTWYLVASWYVAIFDYWGQGTQVTVSS	low polyreactivity
QVQLVESGGGLVQAGGSLRLSCAASGSIFNWYAMGWYRQAPGKERELVAAISSSGSTNYADSVKGRFTISRDNAKNTVYLQMNSLKPEDTAVYYCNADEYYLNNYNYGYWGQGTQVTVSS	low polyreactivity
QVQLVESCGGLVQAGGSLRLSCAASGRIFNHNAMGWYRQAPGKEMKLVAAISWRGGSTYYADSVKGRFTISRYNAKNTVYLQRNSLKPEDTAVYYCATKPSPITYKLDYWGQGTQVTVSS	high polyreactivity
QVQLVESGGGLVQAGGSLRFSCAASGRTFPVYAMGWYRQAPGKEREFVAAISYRTGSTYYADSVKGRFTISRDNAKNTVYLQMNSLKPVDSAVYYCAADYRGSYWRYYYWGQGTQVTVSS	high polyreactivity
QVQHVESGGGLVQAGGSLRLSCAATGRTFRHYAMGWYRLAPGKERELVAAISGSGGRTYYADSVKGRFTISRDNAKNTVYLQMISLKPEDTAVYYCNAYTWTYGEYEYWGQGTQVTVSS	high polyreactivity
QVQLVESGGGLVQAGGSLRLSCAASGFTFSWYALGWYRQAPGKESELVAAINWSGTSTYYADSVKGRFTISRDNAKNTVYLQMNSLKPEDTAVYYCNVVVYRWSPVSKLDYWGQGTQVTVSS	high polyreactivity
QVQLVESGGGLVQAGGSLRLSCAASGRIIGTYAMGWYRQAPGKERELVAAITARTSSTYYADSVKGRFTISRDNAKNTVYLQMNSLKPEDTAVYYCARTGSYRPSFRYDYWGQGTQVTVSS	high polyreactivity
QVQLVESGGGLVQARGSLRLSCAASGSIFYNNALGWYRQAPGKERELVAAISGSGDSTYYADSVKGRFTISRENAKNTVYLQMNSLKPEDTAVYYCNATPYVLWWSDMDYWGQGTQVTVSS	high polyreactivity
QVQLVESGGGLVQAGGSLRLSCAASGFTFYNYAMGWYRQAPGKERELVAAISWSGGSTHYADSVKGRFTISRDNAKNTVYLQMNSLKPEDTAVYYCAKFGVLGYYTYYYWGQGTQVTVSS	low polyreactivity

Sequence	polyreactivity (PSR sort gate)
QVQLVESGGGLVQAGGSLRLSCAASGYTFSSYAMGWYRQAPGKERELVAAITIGGGTNYADSVKGRFTISRDNAKNTVYLQMNSLKPEDTAVYYCNRDVALLEHPVPKKEFGYWGQGTQVTVSS	low polyreactivity
QVQLVESGGGLVQAGGSLRLSCAASGRTFVSNAMGWYRQAPGKERELVAAISSSGGSTYYADSVKGRFTISRDNAKNTVYLQMNSLKPEDTAVYYCATYPWYSKYRYDHWGQGTQVTVSS	high polyreactivity
QDQLVESGGGLVQAGGSLRLSCAASGRTFKRYAMGWYRQAPGKERELVAAITFSGGSTYYADSVKGRFTISRDNAKNTVYLQMNSLKPEDTAVYYCAAGYRWTGGLKYDFWGQGTQVTVSS	high polyreactivity
QVQLGESGGGLVQAGGSLRLSCAASGRTFYSYAMGWYRHAPWKERELVAAISASGGRTYYADSVKGRFTISRDNEKNTVYLQMNSLKPEDTAVYYCAAYPWYRMWGQGTQVTVSS	high polyreactivity
QVQLVESGGGLVQAGGSLRLSCAASGRTFYVNAMGWYRQAPGKERELVASITSGGSTYYADSVKGRFTISRDNAKNTVSLQMNSLKPEDTAVYYCAAGSKDLYRPYDYWGQGTQLTVSS	high polyreactivity
QVQIVESGGGLVQAGGSLRLSCAASGRIFYRYDMGWYRQAPGKERELVAVISGGGTYYADSVKGRFTISRDNAKNTVYLQMNSLKPEDTAVYYCAADDGVSLVSPYYGGYDYWGQGTQVTVSS	low polyreactivity
QVQLEEAGGGLVQAGGSLRLRCAASGRTFWYYAMGWYRQAPGKERELVAAITSGGSTNYADSVKGRFTISRDNEKNTVYLQMNSLKPEDTAVYYCAKLFRKRRSWDWYDYWGQGTQVTVSS	high polyreactivity
QVQLVESGGGLVQAGGSLRLSCAASGRIFKRNAMGWYRQAPGKERELVAAISYSGGSTYYADSVKGRFTISRDNAKNTVYLQMNSLKPEDTAVYYCAAKYRPRGKSSWPYRRYDYWGQGTQVTVSS	high polyreactivity
QVQLVESGGGLVQAGGSLRLSCAASGITLVANTMGWYRQAPGKERELVATITSSGGSTYYADSVKGRFTISRDNAMNTVYLQMISLKPEDTAVYYCAASDLRYRGNYVYLPSEYWGQGTQVNVSS	low polyreactivity
QVQLVESGGGLVQAGGSLRLSCAASGSTFVVYDMGWDRQAPGKERELVAAITWSGGSTYYADSVKGRFTISRDNAKNTVYLQINSLKPEDTAVYYCNKVTWHQGHDYLGQGTQVTVSS	low polyreactivity
QVHLVESGGVLVQAGGSLSLSCAASGRTFIRNAMGWYRQAPGKERELVAAINSGGITNYADSVKGRFTISRDNAKNTVYLQMNSLKPEDTAVYYCNARQVLYGLYLRAYPYEYWGQGTQVTVSS	low polyreactivity
QVHLVESGGGLVQAGGSLRLSCAASGGIFDPYAMGWYRQAPGKERELVAAITNSGGSTYYADTLKGRFTISRDNAKNTVDLQMNSLKPEDTAVSYCAAEGLYVGYDYWGQGTEVTVSS	low polyreactivity
QVQLVESGGGLVQAGGSLRLSCAASGSTFYRYAMGWYRQAPGKEREFVAAISRSGGSTYYADSVKGRFTISRDNAKNTVYLQMNSLNPEDTAVYYCNALNYRYRKYDYWGQGTQVTVSS	high polyreactivity
QVQLVESGGGLVQAGGSLRLSCAASGSIFYFNAMGWYRQAPGKERELVASITSGGSTNYADSVKGRFTISRDNAKNTVYLQMNSLKPEDTAVYYCNKRVHYIAGRGYDYWGQGNQVTVSS	low polyreactivity
QVQLVESGGGLVQAGGSLRLSCAASGFIFKRYAMGWYRQAPGKERELVAAITLSGGDTYYADSVKGRFTISRDNAKNTVYLQMNSLKPEDTAVYYCAARYMSTRTLYYYWGQGTQVTVSS	high polyreactivity
QVQIVESGGGLVQAGGSLRLSCAASGNTFYVNVMGWYRQAPGKEREFVAAISTRGVSTSYADSVKGRFTISRDNAKNTVYLQMNSLKPEDTAVYYCAASFRRPQPKGTTYGYWGQGTQVTVSS	high polyreactivity
QVQLVESGGGLVQAGGSLRLSCAASGITFSTYAMGWYIQAPGKERELVAAITKSGGSTYYADSVKGRFTISRDNAKNTVYLQMNRLKPEDTAVYYCAARFPHRHYLLYTYDYWGQGTQVTVSS	low polyreactivity
QVQLVESGGGLVQAGGSLRLICAASGRIFIYYAMGWYRQAPGKERELVAAITGRDGSTYYADSVKGRFTISRDNAKNTVDLQKISLKPEDTAVYYCAASRFYFRRTFGGYPKLASYDYWGQGTQVTVSS	low polyreactivity
QVQLVQSGGGLVQAGGSLRLSCAASGIIFFKYAMGWYRQAPGKERELVAAITESTSSTYYADSVKGRFTISRDNAKNTVYLEMNSMKTEDTAVYYCAARVSQWLPYGGYSRYYYWGQGTQVTVSS	high polyreactivity
QVQLVESGGGLVQAGGSLRLSCAASGSTFGGNAMGWYRQAPGKERELVAAIDSGGSTYADSVKGRFTISRDNAKNTVYFQMNSLKPEDTAVYYCAAVWEFVHYWRFDYWGQGTQVTVSS	low polyreactivity
QVQLVESGGGLVQAGGSLRLSCAASGRIFTIYAMGWYRQAPGKERELVAAISDRGTRTYYADSVKGRFTISRDNAKNTVYLQMISLKPEVTAVYYCATDALYTYGYDYWGQGTQVTVSS	low polyreactivity
